assay: soluble on expression in E. coli; label from the status in PepcDB or PDB records

Soluble on expression in E. coli, not soluble:
MGSDKIHHHHHHMSTFLESLRDILSAGESIAMATIANHSGSTPRGDGAQMVIRPDGSILGTIGGGLVEARCIEAGRDLLQRPPGSALFCAFALDNTTAAEAAMVCGGHLTVIIEHAGACHDNVNGCHTGEQTGCSAGHGKGLADILLHACDRVADGLSASFGVEYVWDSPSGQDGANALDKADISGRATTRQTFRPMRAAVHTTGEDSDGQRLSGASTGLALSESGCRLDVMLVPPPRLVIFGAGHVAVPTAHFGHAVGFSVTVIDDRPDFATPERFPDAHLRIPPSFAEAFDGLHVTPDTYLVIMTRGHLHDGEILEQALKTPARYIGMIGSRRKRDALYAELQEQGLDDATLARCHCPIGLDIQAQTPEEIGISIMAELVMHRASA
MGSDKIHHHHHHMSTIQIKQLNFAYDGQAPLFTNTTLDLDTNWHLGLVGRNGRGKTTLLRILQQALPYSGTVTVPLQLQYFPQTLDETQLTLTAAQAITDVAQWQLERELNLLHADPNILWRPFVDLSGGEQTKVRLALLFIQDNGVALIDEPTNHLDLRSRRQVAAYLQQKPGFIVVSHDRDFLDSITDHTLAIQRQQITLYQGNFSTFMTEKERQDQTELAKNGQLKTEITRLKRTTHDKKVWAENKEKSIYGNPHIKDSGHNAGRGFISARAARTMKKSKNLEHRMTKEIDEKESLLKNLEKVDPLTMLPVSTHHHQLVVAEKVQVGFDQPLFQPISFTLTRGDRIAIVGDNGSGKSTLIRALLKQFTGMQSGHLTLAPVSLSLVRQQYTDNRGTLVDFAKQHQLSRETLLNNLRKLGMPRADFNTSIEHLSMGQQKKVELARSLATPGALYVWDEPLNYLDTYNQDQLVAAIKHYQPTMLFVEHDEHFIEQVATKIIRLQP
MGSDKIHHHHHHMSTPIGLGLPPTPPPVLAPRRKTRQLMVGKVGVGSDHPISVQSMTTTKTHDINGTLQQIAQLTATGCDIVRVACPKTVDAEALPIIAKKSPIPVIADIHFQPKYIFAAIDAGCAAVRVNPGNIKEFDGRVKEVAKAAGDAGIPIRIGVNGGSLDKRILDKYHGKATPEALVESAMWEAGLFEEHGFGDIAISVKHSDPVLMVEAYRQLAEQSDYPLHLGVTEAGPKFMGTIKSSVAFGALLSQGIGDTIRVSLSADPVEEIKVGDQILQSLNLRPRKLEIVSCPSCGRAQVDVYSLAEEVTEALDGMEVPLRVAVMGCVVNGPGEARDADLGVASGNGKGQIFVKGEVIKTVPESQIVETLIEEAMRIAEEMDPEVLAAASASGMKAEVKVTK
MGSDKIHHHHHHMTAPMPNLGAVFDTVDPAMAHLAARIDRLILAIDAALTRQLNAILAASEFRALEARWRALDRVLTHAGRDGQVIVRILNVSWRALSRDLDRAVEFDQSHLHKLVYDGEFGMPGGLPFGVLVADYEVSATTDRARGDQVETLSRLAAVAAAAFCPIMLGAAPDLLGVDDFDQIAPYTDLTDAEGRRADPPMIRWRALRDRDDARFIGLVAPRIVLRGPRTRLSPTRADGFTFDEDPHRILSVAGSFAFATTVIAAFRASGWFAAIRGAAQDTDGGGRVAGWPGHDLGTDGHNLSRQSPATLRLTAAQEDALIARGIVPLSSLPLTDEAVFNANPSLHRPTRYDSPVASENARISAMLQYVLCTSRFAHYLKVMMREAIGSVAPPDVIQGHLDDWLRGYCLGNEDAGAELKAEYPLRNAGVEVTPIPGKPGAFAARIHLQPHFQLDDISTSFHLVSEAPAGLERTSA
MGSDKIHHHHHHMTARWRSANGRPAPTRVEVVSDSLTADDANRMASQGIAMLWQGDFHNARQILNAMDRRIGAGKKETAATPAEKFYRHRQSASHRARILGLLLIPLDPGPVVPLRRAPDIRQAAAGAYGDIGEPSVVSLHELVGAIGAHEWRRNGVYVDALEGRIHPHYGTFFPTRSEYVDLVAAAALPSDTLAFDVGTGTGVLAAVLARRGVRSVVATDNEPRAIACAAENFRNLGVQDRAEAVLTDMFPPGRAPLIVCNPPWIPATPHSSLDSAVYDPGSRMLFRFLNELSDHLEPGGEGWLVLSDLAEHLGLRSRGDLLAAIEAAGLKVVERLDTKPTHPKASDRDDPLFEARTAEVTSLWRLVPR
MGSDKIHHHHHHMTAVKHAFTELPTIDIRDLAGDDLARRQAVADAIGRAAREVGFFYITGHGIDPALIAGVREAAKQIFALPMEEKMNYYIGHSKSHKGYVPEGEEIYGSGKPDHKEAFDIGFQAADDHPLVLAGTPLIGANEWPDLPDFRARVLAYYDAVFALGHRLFDAFALALGLPEGYFKPMVTCPPAKLRLIHYPFDASVEDVPGIGAHTDYECFTLLLADQPGLEVLNEESVWIDAPPVKNAAGEEAFVINIGDMLEVLSAGTFVATAHRVRKVPQERYSFPLFFACDYHTLIRPLPTFLAAGEAGEYQELSIGEHMWSQALQTYRYLREKVNRGELQLPERARGTNTFGHLKKQAQQKNP
MGSDKIHHHHHHMTDDQIHQTDWLQRGRDVLDIEAEGIRAVRDRLGPSFESALALLAGCRGRVVVTGLGKSGLVGRKLAATFSSTGSPAFFLHPVEGAHGDMGSLKADDVVIAISNSGETDELNAILPSLRAIGTPIIALTGRADSSLGRGADIVLDCGVPREACPLGLAPTASTTAVLALGDALAVCLIDWKSFTENDFLRYHPGGSLGQRLRLRVAELMHTEGIPVVNEEAVCEEAVLALDKGGFGAVALTDGGGRLTGILTDGDVRRAVLRGTYGPRVGVTHIMTRNPRFARQTQSVAELIDIMEQKAITVLPITDDDHRLVGLVHLHDLLGKGGVTFAG
MGSDKIHHHHHHMTDLADLTCVGPGTPMGTLMRQYWVPAAKSSELKRDGDPMRLMLLGEKLIAFRDSEGRVGVLDHRCPHRCASLFLGRNEESGIRCVYHGWKFDVAGRCVDMPSVPPHQDFKDKVHAKAFRTAERNGLVWVYMGDAAEPPPLPAIEANLVADCEIWCLQRDCNWLQALEGDIDTSHVGFLHVGSLKPDDLADDHPMRPTVLDRAPEYAVTNTAWGTMYGGYRPNDDGQRSWRVAHFMFPFWTQTPNNRFSSRAIARAWVPMDDEHSMLFDITCGVDEGNPAYSSTRKTGEPLFAPFEYAPATTDWFGRWRCVDDRRNDWGIDRELQRNGSQYTGIPNITMQDQAVTESMGPIIDHSYEHLAPTDQMIARTRRRLLLATQALSEQGTLPPGAQDSDVFFGARAGSFLCDPGLPFETAYATQLETATRWAGDKVVS
MGSDKIHHHHHHMTDLEHQVFTQVRAIIANEEQVIGRRGILIPLKKAIIADGDIRNVIDIVSSDPALAAHLLWRSNSAANASVSSKNRSLKDALVRLGQVNIYRYAFTFYLKERLDELPQPYKKLVYGYWALTESIATDAVDSLHHMEGVNINPDEVQTLALFSVFGEIIALTAFAYLNAESEQSFPLSIIKSLIDNQKQTLTLEAFESLGLDEELREEFMIAHNLRQTRNPDSPGLVLRRVLSMRNQLLNPL
MGSDKIHHHHHHMTDPRILSLQQAVPALRLKTEPADLEHYGRDWTRRWTPNPLAIALPGSVEEVQAVVRWANTHAVAVVPSGGRTGLSGGAVAANGELVLSLERLNKPLAFDAVDRTLTVQAGMPLEAVHNAAREHGLVYPVDFAARGSCSIGGNIATNAGGIRVIRYGNTREWVAGLSVVTGTGELLHLNNALVKNSSGYDFRHLMIGSEGTLGIVVEATLRLTDPPPPSNVMLLALPSFDVLMQVFAAFRAQLRLEAFEFFTDRALEHVLAHGAQAPFAEVHPYYVVTEFAAGDEAQEAAAMAAFEACMEQGWVSDGVISQSDAQAAQLWRLREGITEALARYTPYKNDVSVRISAMPAFLAETQALLHDAYPHFDVVWFGHIGDGNLHINVLKPDATSQADFITACEQVTKLLAQSLQRFDGSISAEHGIGLVKKPYLWSTRSAAEIALMRGIKHVLDPHLLLNPGKLFDMDEVPGATPAG
MGSDKIHHHHHHMTDVHASTQALKPARLLADSPSRFPGESAEYRRARNDLLVEEIELRRHIERVAAQRRALPAGGVVPEDYRFMGEAGPVALSEMFGAHDTLVTYNWMFGPQRVRPCPMCTSLLSAYDGEMPDILQRVAFAVIARAPIERLVAFGKERGWRHLRLYSSGGNSFNRDYAAEDPAGDDHPAFNVFTRSGGTVRHFWAEEMGPSTADPGQDPRGAPDVMPIWTVLDMTPGGRGTDWYPKLEYDTAPG
MGSDKIHHHHHHMTEEVPSMDTAPSVGDVREYWNRNPLLSHELASPGSPAFFASLDTAKREDSDRFAMDYWEFGQWAGQRVLDIGCGPGWLTVQYARGGAQVDSVDLTPRAVELAQAHLALHGQSATVREGNAEELPFPDDQFDLVAASGVLHHTPDTQATFREAFRVTKPGGQGKITLYRKGILHHPAVFAMTRIAMRLFGVKHPGADLGKNSSDVDDFIRRYDGDGNPVGIGKTDADWAADLAAAGWVVQGHEVHFFPRRFLPCARLIPVWLHEFLDTRLGTMVYFRLRKPIISGK
MGSDKIHHHHHHMTEGLTIGIDVGGTNLRFGVFRGNELLDSTRSEVDLREKCRQAPDPEGAAALVTTLLTEGIADLRRHHPNIARVGIAFPGFIDDDGVLLQSPNIPQLIQFDLQTAVGAACQLPVLVENDANAAGYGEFWEERQEHPELQNLLYVGLGTGVGGGWIHQGRPWRGDHGSAMEIGHIIVVPGGRRCGCGNQGCLEQYASARGVQSTYVELTGTAPDAMVIAQMAGDAHSEAASAFRMAGGYLGQVLAHVVKVTDVAVVRIGGGMSAAWDRFAPAMLQRLDADMIPALRGNVEVKRGNDDDLAGMRGAALLADQEFLHS
MGSDKIHHHHHHMTEGSQQKRVVVVGAGWAGLGATYHLAKQGYDVTLLEAGPYPGGLVAGWQTTGGKSVEAGIHGFWYPYRNIFALINELNIHPFTTWTRSAQYSPAGLEVESPIFQDLPRLPTPLGTFIYTQFQRLPLIDRLSALPLLYAVVDFDNSDAAWRRYDSVTARELFKDFGVSARLYKEAFEPMLLVGLFAPGEQCSAAATLGMLYFFILAHQADFDVVWCRGTVGEKIFRPWVERIEKAGAKVLPKHRVTDLIIDSNNQATGVVCGNEVFDADAVIFAVGITGMKKIVSSSPSLQSRAEFRNLHNLGAIDVLATRLWFDRKIDIPRPSNACFGFDNTTGWTFFDLNALHDEYKNELGTVIEADFYHANQFLNWSDAEIVATVQNYLTTCVPGFAQAKVIDSSVIRLPQAVTHFAPGSYPYMLPAKTSFDNVFMSGDWIVNRHGSWSQEKAYVTGLEAANLVVSHLGEGTPVEILPVEADETHIQVARSLNQTVRKLGKFILPNFWLP
MGSDKIHHHHHHMTEITTLSQFLTTAKTQFQVYELGRRVQHIDMLAFHQIESLVTPYPYPIQGHAQFAVVFWNESQQHFIWFLKLPLDEQGLLSPAPRSQFIEMVLTALGQDPTQPLTDEQQDRLANNPFSFKPSQEKLSVFNALVRKQLGLSASIQYEFAMQYLSGQIAPSEWQHIGMQGLSDVCVRLGELDHEQHILASFDQAAIEVQIALCQCLEHLQLTEAIAMKIFSKFITAPNEYQAYYLRALASQTELSQQALLHLQQTDRLDANALISIAGRNWPILKQALSRSIYLEALALQPQAFFNQIFADIVAIPNLRNHLLGELRNPNRSVQLSQAIGGLFKAASK
MGSDKIHHHHHHMTEKATLAKQILHFNETLSSNSMDLPAGYRVINPYEGDQKELVRNITTRFYQKYYNDTKPRRIIFGSSPARRGSAVTGVPFEDAKHLQSETGIFIDTFYINQSSSDFLYDVMNEYGGCEQFYSDFYMNFVCPLGIVRINAKGNEVNCNYYENKQLREALMPFIIESIRSQIDFGMDTSVCYCIGSGENFKFLSRINEEHHFFETIIPLEHPRFIMQYNSKNKDTYMEKYLCALKI
